Laboratory results published in the supplement of paper PMC6755084.

B1: minF1; the commonest letter at each place (parent)
chain: GAGACCGCAACTGAAAAGTTGTTATCAGAAATGGATGGGTTGAATTTCTGCACGTAGAAGCAAAAGGC

Variants of: B1
Assay: fraction ligated after 30 min (ligated reads / total reads); higher = more ligase activity
Details: with F1*subA RNA substrate (template-directed ligation), 42 °C
Experimental: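 Chip-synthesised pool of minF1 ligase ribozyme variants (single and double substitutions, single to quadruple deletions, bulge and P2 designed variants) was transcribed with T7 and reacted as a pool with excess substrate F1*subA for 30 min at 42 C in 50 mM EPPS pH 8.5, 25 mM MgCl2. Ligated and unligated RNAs were separated by PAGE, barcoded by RT and deep sequenced; fraction ligated = ligated reads / total reads, relative activity = FL / FL of wild-type minF1 (0.76); sequencing FL correlated with PAGE (R2 = 0.98). Sequences are the DNA template of the ribozyme.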

Row | Variant | fraction ligated
1 | GAGACCGCAACTGAAAAGTTGTAATCAGAAATGGATGGGTTCAATTTCTGCACGTAGAAGCAAAAGGC [T23A G42C] | 0.00428
2 | GAGACCGCAACTGAAAAGTTGTAATCAGAAAGGGATGGGTTGAATTTCTGCACGTAGAAGCAAAAGGC [T23A T32G] | 0.000962
3 | GAGACCGCAACTGAAAAGTTGTAATCAGAAAAGGATGGGTTGAATTTCTGCACGTAGAAGCAAAAGGC [T23A T32A] | 0.00638
4 | GAGACCGCAACTGAAAAGTTGTAATCAGAAACGGATGGGTTGAATTTCTGCACGTAGAAGCAAAAGGC [T23A T32C] | 0.00262
5 | GAGACCGCAACTGAAAAGTTGTCATCAGTAATGGATGGGTTGAATTTCTGCACGTAGAAGCAAAAGGC [T23C A29T] | 0.288
6 | GAGACCGCAACTGAAAAGTTGTCATCAGGAATGGATGGGTTGAATTTCTGCACGTAGAAGCAAAAGGC [T23C A29G] | 0.277
7 | GAGACCGCAACTGAAAAGTTGTCATCAGCAATGGATGGGTTGAATTTCTGCACGTAGAAGCAAAAGGC [T23C A29C] | 0.254
8 | GAGACCGCAACTGAAAAGTTGTCGTCAGAAATGGATGGGTTGAATTTCTGCACGTAGAAGCAAAAGGC [T23C A24G] | 0.0315
9 | GAGACCGCAACTGAAAAGTTGTCCTCAGAAATGGATGGGTTGAATTTCTGCACGTAGAAGCAAAAGGC [T23C A24C] | 0.0187
10 | GAGACCGCAACTGAAAAGTTGTCTTCAGAAATGGATGGGTTGAATTTCTGCACGTAGAAGCAAAAGGC [T23C A24T] | 0.0194
11 | GAGACCGCAACTGAAAAGTTGTAAGCAGAAATGGATGGGTTGAATTTCTGCACGTAGAAGCAAAAGGC [T23A T25G] | 0.00615
12 | GAGACCGCAACTGAAAAGTTGTAAACAGAAATGGATGGGTTGAATTTCTGCACGTAGAAGCAAAAGGC [T23A T25A] | 0.00503
13 | GAGACCGCAACTGAAAAGTTGTAACCAGAAATGGATGGGTTGAATTTCTGCACGTAGAAGCAAAAGGC [T23A T25C] | 0.0136
14 | GAGACCGCAACTGAAAAGTTGTCATCAGAAGTGGATGGGTTGAATTTCTGCACGTAGAAGCAAAAGGC [T23C A31G] | 0.392
15 | GAGACCGCAACTGAAAAGTTGTCATCAGAACTGGATGGGTTGAATTTCTGCACGTAGAAGCAAAAGGC [T23C A31C] | 0.328
16 | GAGACCGCAACTGAAAAGTTGTCATCAGAATTGGATGGGTTGAATTTCTGCACGTAGAAGCAAAAGGC [T23C A31T] | 0.517
17 | GAGACCGCAACTGAAAAGTTGTAATCAGAAATGGATGGGTTGATTTTCTGCACGTAGAAGCAAAAGGC [T23A A44T] | 0.0479
18 | GAGACCGCAACTGAAAAGTTGTAATCAGAAATGGATGGGTTGAGTTTCTGCACGTAGAAGCAAAAGGC [T23A A44G] | 0.0455
19 | GAGACCGCAACTGAAAAGTTGTAATCAGAAATGGATGGGTTGACTTTCTGCACGTAGAAGCAAAAGGC [T23A A44C] | 0.0208
20 | GAGACCGCAACTGAAAAGTTGTCATCAGAAATGAATGGGTTGAATTTCTGCACGTAGAAGCAAAAGGC [T23C G34A] | 0.0166

Row | Variant | fraction ligated
21 | GAGACCGCAACTGAAAAGTTGTCATCAGAAATGTATGGGTTGAATTTCTGCACGTAGAAGCAAAAGGC [T23C G34T] | 0.00428
22 | GAGACCGCAACTGAAAAGTTGTCATCAGAAATGCATGGGTTGAATTTCTGCACGTAGAAGCAAAAGGC [T23C G34C] | 0.0023
23 | GAGACCGCAACTGAAAAGTTGTAATCAGAAATAGATGGGTTGAATTTCTGCACGTAGAAGCAAAAGGC [T23A G33A] | 0.178
24 | GAGACCGCAACTGAAAAGTTGTAATCAGAAATCGATGGGTTGAATTTCTGCACGTAGAAGCAAAAGGC [T23A G33C] | 0.0701
25 | GAGACCGCAACTGAAAAGTTGTAATCAGAAATTGATGGGTTGAATTTCTGCACGTAGAAGCAAAAGGC [T23A G33T] | 0.0493
26 | GAGACCGCAACTGAAAAGTTGTCATCAGAAAAGGATGGGTTGAATTTCTGCACGTAGAAGCAAAAGGC [T23C T32A] | 0.00196
27 | GAGACCGCAACTGAAAAGTTGTCATCAGAAACGGATGGGTTGAATTTCTGCACGTAGAAGCAAAAGGC [T23C T32C] | 0.0041
28 | GAGACCGCAACTGAAAAGTTGTCATCAGAAAGGGATGGGTTGAATTTCTGCACGTAGAAGCAAAAGGC [T23C T32G] | 0.00399
29 | GAGACCGCAACTGAAAAGTTGTAATCAGAAATGTATGGGTTGAATTTCTGCACGTAGAAGCAAAAGGC [T23A G34T] | 0.00436
30 | GAGACCGCAACTGAAAAGTTGTAATCAGAAATGCATGGGTTGAATTTCTGCACGTAGAAGCAAAAGGC [T23A G34C] | 0.00115
31 | GAGACCGCAACTGAAAAGTTGTAATCAGAAATGAATGGGTTGAATTTCTGCACGTAGAAGCAAAAGGC [T23A G34A] | 0.0227
32 | GAGACCGCAACTGAAAAGTTGTAATCAGAAATGGAGGGGTTGAATTTCTGCACGTAGAAGCAAAAGGC [T23A T36G] | 0.0346
33 | GAGACCGCAACTGAAAAGTTGTAATCAGAAATGGAAGGGTTGAATTTCTGCACGTAGAAGCAAAAGGC [T23A T36A] | 0.0114
34 | GAGACCGCAACTGAAAAGTTGTAATCAGAAATGGACGGGTTGAATTTCTGCACGTAGAAGCAAAAGGC [T23A T36C] | 0.012
35 | GAGACCGCAACTGAAAAGTTGTCATCAGAAATGGATAGGTTGAATTTCTGCACGTAGAAGCAAAAGGC [T23C G37A] | 0.00595
36 | GAGACCGCAACTGAAAAGTTGTCATCAGAAATGGATCGGTTGAATTTCTGCACGTAGAAGCAAAAGGC [T23C G37C] | 0.00507
37 | GAGACCGCAACTGAAAAGTTGTCATCAGAAATGGATTGGTTGAATTTCTGCACGTAGAAGCAAAAGGC [T23C G37T] | 0.0164
38 | GAGACCGCAACTGAAAAGTTGTCATCAGAGATGGATGGGTTGAATTTCTGCACGTAGAAGCAAAAGGC [T23C A30G] | 0.391
39 | GAGACCGCAACTGAAAAGTTGTCATCAGACATGGATGGGTTGAATTTCTGCACGTAGAAGCAAAAGGC [T23C A30C] | 0.21
40 | GAGACCGCAACTGAAAAGTTGTCATCAGATATGGATGGGTTGAATTTCTGCACGTAGAAGCAAAAGGC [T23C A30T] | 0.221
